# Assay results as given in the nanobody polyreactivity screen of Harvey et al. (2022).
# Experiment: yeast display, Sf9 membrane polyspecificity reagent, FACS + sequencing; frameworks hold sequencing errors
# Procedure, shortened: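 Polyreactivity labels are assigned by the sorting gate from which each nanobody was recovered. The gates were low and high (top ~1%), set on anti-HA fluorescence for expression and streptavidin fluorescence for reagent binding. Before sorting, galactose-induced (36–48 hours) yeast display cells were stained for 1 hour at 4 °C with 10% biotinylated, detergent-solubilized Sf9 membrane reagent.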
row,Sequence,polyreactivity (PSR sort gate)
1,QVQLVESGGGLVQAGGSLRLSCAASGFTFLYNAMGWYRQAPGKERELVAAIDSGGNTNYADSVKGRFTISRDNAKNTVYLQMNSLKPEDTAVYYCAADVVSVGQGTADYDYWGQGTQVTVSS,low polyreactivity
2,QVQLVESGGGLVQAGGSLRLSCAASGSTFESNAMGWYRQAPGKERELVAAISTSGGSTYYADSVKGRFTISRDNAKNTVYLQMNSLKPEDKAVYYCNAYPEAVRWKYNYWGQGTQVTVSS,low polyreactivity
3,QVQLVESGGGLVQAGGSLRLSCAASGRILIRKAMGWYRQAPGKERELVAAINRGGGSTYYADSVKGRITISRDNAKNTVYLQMISLNPDDTAVYYCAADRKAGYSRVDGDYWGQGTQVTVSS,low polyreactivity
4,QVQLVESGGGLVQAGGSLRLSCAASGSIFFYYAMGWYRQAPGKERELVAAISGGGRTNYADSVKGRFTISRDNAKNTVYLQMNSLKPEDTAVYYCAADPVYWYSPMDYWGQGTQVTVSS,low polyreactivity
5,QVQLVESGGGLVQAGGSLRLSCAASGLIFRYYAKGWYRQGPGNEMELVAVISRRGDSTYYADSVKVRFTISRDNAKNTVYLQMISLKPEDTAVFYCAAEYFKRYKSYEYWGQGTQVTVSS,high polyreactivity
6,QVQLVESGGGLVQARGSLRLSCAASGNTIIRYAMGWYRQAPGKERELVAAISYAGGRTYYADSVKGRFTISRDNAKNTVYLQMNSLTPEDTAVYYCNAASRYGGDYWGQGTQVTVSS,high polyreactivity
7,QVQLVESGGGLVQGGGSLRLSCADSGSTFSSNAMGWYRQAPGKERELVAAITGSGGRTYYADSVKRRFTISRDNAKNTVYLQMNCLKPEDTAVYYCAKRYRGGYWGQGTQVTVSS,high polyreactivity
8,QVQLVESGGGLVQAGGSLRLSCAASGRTFRAYALGWYRQAPGKERELVARISWSGGNTYNADSVKGRFTISRDHAKNTVYLQMNSLKPEDTAVYYCAKTYYPYPAQIYTGYSWGQGTQVTVSS,low polyreactivity
9,QVQLVESGGGLVQAGGSLRLSCAASGSIFHPYGMGWYRQAPGKVRELVAAMTSSGGDTYYADSVKGRFTISRDNAKNTVYLQMNSLKPEDTAVYYCAATGLPGYYAYDYWGQGTQVTVSS,low polyreactivity
10,QVQLVESGGGLVQAGGSLRLSCAASGSTFSIYAMGWYRPAPGKERELVAAITGTVGSTYYADSVKGRFTISRDNAKNTVYLQMNSLKPEDTAVYYCAARQVNYDYDYWGQGTQVTVSS,low polyreactivity
11,QVQLVESGGGLVQAGGSLRLSCASSGFSFDYYVMGWYRQAPGKEMELVASNRSRGASTHYADSVKGRFTISRDNAKNTVYLQMNRLKTEDTAVYYCAKGGGYRRAARSFGGGDYWGQGTHVTVSS,low polyreactivity
12,QVQLVESGGGLGQAVGRLRLSCAASGGTFPQYAMGWYRQAPGKEREFVADITSRGGTTYYADSVQGRFTISRDNAKNTVYLQMNSLKPEDTAVYYCAADNPADWWGLDYWGQGTQVTVSS,low polyreactivity
13,QVQLVESGGGLVQAGGSLRLRCAASGFTFYLYAMGWYRQAPGKERELVAAITWSGGRTYYADSVKGRFTNSRDNAKNTVYLQMNSLKPEYTAVYYCAAVVRKQLSAPSDYWGQGTQVTVSS,high polyreactivity
14,QVQLLESGGGLVQAGGSLRLSCAASGLIFRSYAMGWYRQAPGKERELVARISIRGGSTYYADSVKGRFTISRDNAKNTVYLQMNCLKPEDTAVYYCAAVGYFGGYRYDYWGQGTQVTVSS,high polyreactivity
15,QVQHVESGGGVVQAGGSLRLSCAASGIIFPRNALGWYRQAPGKERELVAAIRSSGGTTYYADSVKGRFTISRDNAKNTVYLQMNSLKPEDTAVFYCAAVTTSKFNYWGQGTQVTVSS,low polyreactivity
16,QVHLVESGGGLVQAGGSLRLSCAASGRNFDNKAMGWYRQAPGKERELVATLSRNGGSTYYADSVKGRFTISRDNAKNTVYLQINRLKRDDTAVYYCNKRTRFIPSFDYWGQGTQVTVSS,low polyreactivity
17,QVQLVESGGGLVQAGGSLRIICAASGRIFYGNTMGWYRQAPGKERELVAAITIGDSTNYADSVKGRFTISRDNAKNTVYFQMNSLKPEDTAVYYCAKRNWWGYYNYDYWGQGTQVTVSS,low polyreactivity
18,QVQLVESGGGLVQAGGSLRLSCAASGISFTYNTMGWSRQAPGKESELVAAITSGGGTNYADSVKGRFTISRDNAKNTVYLQMNSLKPEDTAVYYCAKDPGTVGPIWYDYWGQGTQVTVSS,low polyreactivity
19,QVQLVESGGGLVQAGGSLRLSCAASGRIFLGNAMGWYRQAPGKERELVAAITNGGGSTYYADSVKGRFTISRDNAKNTVYLQMNSLKPEDTAVYYCAAPVRQSSYTRYDSWGQGTQVTVSS,high polyreactivity
20,QVQLVESGGGLVQAGGSLRLSCAASGSIFAGYAMGWYRQAPGKERELVAAISRRGGRTYYADSVKGRFTISRDNAKNTVYLQMNSLKPEDTAVYYCARRVDYISSKYGYWGQGTQVTVSS,high polyreactivity
21,QVQLVESGGGLVQAGGSLRLSCAASGSIFYLYAMGWYRQAPGKERELVATITASGGSTNYADSVKGRFTISRDNAKNTVYLQMNSLKPEDTAVYYCAAEYYYLVYEYDYWGQGTQVTVSS,high polyreactivity
22,QVQLVESGGGLVQAGGSLRLSCAASGRTFWANAMGWYRQAPGKERELVAAINYSGGRTYYADSVKGRFTISRDNAKNTVYLQMNSLKPEDTAVYYCNVVHGGAISDYWGQGTQVTVSS,high polyreactivity

row,Sequence,polyreactivity (PSR sort gate)
1,QVQLVESGGGLVHAGASLRLSCAASGLTFRKYAKGWYRQAPGKERELVAAITGSGGRTYYADSVKGRFTISRDNAKNTVYLQMNSLQPEDTAVYYCAADDYFHDDYWGQGTQVTVSS,high polyreactivity
2,QVQLVESVGGLDQAGVSLRLSSAASGSTFGSYVMGWYRQSPGKERELVASISDGGITNYADSVKGRFTISRDNAKNTVYLQMNSLNPEDTAVYYCAAATRPFSDYTTEGYYYWGQGTQVTVSS,low polyreactivity
3,QVQVVESGGGLVQAGGSLRLSCAASGRIFGVNAMGWYRQAPGKERELVAVISSGGSTYYADSVKGRFTISRDNAKKTVYLQMNSLKPEDTAVYYCNAVVGRWFPYNLSDYWGQGTQVTVSS,low polyreactivity
4,QVQLVESGGGLVQAGGSLRLSCAASGRIFRRYAMGWYRQAPWKERELVAAISTSGVRTYYADSVKGRFTISRDNAKNTVYLQMNSLNPEDTAVYYCATVAGPPYDYWGQGTLVTVSS,high polyreactivity
5,QVQRVESGVGLVQAGGSLRLSCAASGRIFRPYAMGWFRQARGNERELVAAITYSGGSTRYADSVKGRFTLSRDNAKNTVYIQMNSLKPEDTAVYYCAADLSYQDDPRWSYDYWGQGTHVTVSS,high polyreactivity
6,QVQLVESGGGLVQAGGSLRLSCAASGRIFAPKAMGWYRQAPGKERELVADINFSGDSTYYADSVKGRFTISRDNAKNTVYLQMNSLKPEDTAVYYCAADISLVSYYYWGQGTQVTVSS,low polyreactivity
7,QVQLVESGGGLVQAGGSLRLSCAASGSIFGYYAMGWYRQAPGKERELVAAITWRGGTYYADSVKGRFTISRDNAKNTVYLQMNSLKPEDTAVYYCAAPRLATYQWYDYWGQGTQVTVSS,high polyreactivity
8,QVQLVESGGGLFQAGGTLRLSCASSGLIFSRYAMGWYRQSPGKEWELVAGISTSGGRTYYADSVKGRFTISRYNAKNTVYFQMNSLKPEDTAVYYCAAQFKYRQINSYLLGDYWGQGTQVTVSS,high polyreactivity
9,QVQLVESGGGLVQAGGSLRLSCAASGRIFDRNAMGWYRPSPGTERELLAAIDDSGGDTSYADSVKGRFTISRDNAKNTVYLQMNSLKPEDTAVYYCNAGYADFVTYPRYYYWGQGTQVTVSS,low polyreactivity
10,QVQLVESGGGLVQAGGSLRLSCAASGIIFTYYAMGWYRQAPGKERELVADIDWSGDGTYYADSVKGRFTISRDNAKNTVYLQMNSLKPEDTAVYYCAAEGTETYYVFYDQPEITLYDYWGQGTQVTVSS,low polyreactivity
11,QFQLVESGVGLVQAGASLRLSCAASVLTFVGNAMGWYRQAPGKERELVDAISKRGGRTYYADSVKGRFRISRDNAKNTVYLQMNSLKPEDTAVYYCAATIKAYPTPLLGDYWGQGTQVTVSS,high polyreactivity
12,QVQLVESGGGLVQAGGSLRLSCAASGRTLVWYTMGWYRQAPGKEREFVAVITTGSGSTYYADSVKGRFTISRDNAKNTVYLQMNSLKPEDTAVYYCNAGYGGYSYHYPPYEYWGQGTLVTVSS,low polyreactivity
13,QVQLVESGGGLVQAGGSLRLSCAASGFIFVYNDMGWYRQAPGKERELVAAISTSGGSTYYADSVKGRFTISRDNAKNTVYLQMNSLKPEDTAVYYCAAGPSYYPFFWPDFEYWGQGTQVTVSS,high polyreactivity
14,QVQLVESGGGLVQAGGSLRLSCAASGSTFQYYAMGWYRQAPGKDRELVAAIRTGGSTNYAHSVKGRFTISRDNAKNTVYLQMNSLKPDDNAVYYCAKRSLRSYRMNYWGQGTQVTVSS,high polyreactivity
15,QVQHVETGGGLVQAGCSLRLSCAASGRTFLWNAMGWYRQERGNERELGARINLSGGRTYYADSVKGRFTISRDNAKNSVYLQMNSLKPEETAVYYCAAPVVRYRRDSWGQGTQVTVSS,low polyreactivity
16,QVQLVESGGGLVQAGGSLRLSCAASGFTFIDYAMGWSRQAPGKERELVAAITRDGGSTYYADSVKGRFTISRDNANNTVYLQMNRLKPEDTAVYYCATVRRVQHWVWYWLWRYDYWGQGTQVTVSS,high polyreactivity
17,QVQLVESGGGLVQAGGSLRISCAASGRIFERNAMRWYRQAPGKERELVAAITYNGGRTYYADSVKGRFTISRDNAKITVYLQMNSLKPEDTAVYNCNAQSRVTRSSYRGSPRYDFWGQGTQVTVSS,high polyreactivity
18,QVQLVESGGGLVQAGGSLRLSSAASGSTFYKYAMGWNRQTPGKERELVAPITGNSGSTYYADSVKGRFTISRDNAKNTVYLQMNSLKPEDTAVYYCAAARPRVWAFNYWGQGTQVTVSS,low polyreactivity
19,QVQLVESGGGIVQAGGSLRLSCAASGRTFAYYTMGWYRQAPGKERELVARISNRGTNTYYADSVKGRFTISRDNAKNTVYLQMNSLKPEDTAVYYCAKYYYTSIVGYDSWGQGTQVTVSS,low polyreactivity
20,QVQLVESGGGLVQAGGSLRLSCAASGGTLYLYAMGWYRPAPGKERELVAAISYNGGSTYADSVKGRFTISRDNAKNTVYLQMNSLKPEDTAVYYCAADRSPRCLGGYWGQGTQVTVSS,low polyreactivity
21,QVHLVESGGGVVQAGGSLRLSCAASGFTFVPYAMGWYRQAPGKETETNADSVKGRFTSSRDNAKNTVYLQMNSLKPEDTAVYYCAAGGYGPYDYWGQGTQVTVSS,low polyreactivity
